What was measured:
GST–Cdc14p = target: T1, GST–Cdc14p (budding yeast, UniProt Q00684 1-551); test: pull-down
T1 sequence: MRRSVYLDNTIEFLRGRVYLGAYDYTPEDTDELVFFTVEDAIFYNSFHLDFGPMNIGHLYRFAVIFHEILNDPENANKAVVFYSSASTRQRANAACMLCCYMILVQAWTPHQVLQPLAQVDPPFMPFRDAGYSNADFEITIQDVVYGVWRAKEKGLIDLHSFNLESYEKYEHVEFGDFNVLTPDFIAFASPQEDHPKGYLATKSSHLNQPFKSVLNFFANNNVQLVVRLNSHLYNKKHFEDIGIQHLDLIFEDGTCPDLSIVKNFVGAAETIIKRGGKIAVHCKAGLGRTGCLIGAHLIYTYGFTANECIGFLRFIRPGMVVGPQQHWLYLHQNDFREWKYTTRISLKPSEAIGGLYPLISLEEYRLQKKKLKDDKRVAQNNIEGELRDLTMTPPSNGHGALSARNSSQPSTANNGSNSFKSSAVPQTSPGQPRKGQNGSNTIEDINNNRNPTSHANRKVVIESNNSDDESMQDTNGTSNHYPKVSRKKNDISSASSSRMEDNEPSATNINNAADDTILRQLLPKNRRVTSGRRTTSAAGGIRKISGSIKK

6His–Cdc14p = target: T2, 6His–Cdc14p (budding yeast, UniProt Q00684 1-551); test: pull-down
T2 sequence: T1 sequence

B1: 6His–Tem1p (natural protein)
chain: MATPSTGANNSIPAVRNQVEVQVGLVGDAQVGKTSLMVKYVQNIYDKEYTQTLGVNFLKRKVSIRSTDIIFSIMDLGGQREFINMLPIATVGSSVIIFLFDLTRPETLSSIKEWYRQAYGLNDSAIPILVGTKYDLLIDLDPEYQEQISRTSMKYAQVMNAPLIFCSTAKSINIQKIFKIALAKIFNLTLTIPEINEIGDPLLIYKHLGGQQHRHHNKSQDRKSHNIRKPSSSPSSKAPSPGVNT
binding result (GST–Cdc14p): binds

B2: GST–Bfa1p^1–394 (domain or fragment)
chain: MSIRPLTLNGLDEPETSFEELNTTLPRFQSHETLTLEENVPPLSTSTYIPPPSSVGTSDTGTVFSNSTSAFWSNKQADDDQDMEVDQDDEFLNDFQEFQNKKDDFDDAIKTNFHLRNGCRTGPFKNDIFAEEFDRKLSLEDKPRLKQPRSMMELKPKRKLSNSVTSRNLRSGNSVRFKKSMPNLALVNPAIREEEEDEEREREDQREFNYKIDNDTQDTILAKFSSDDEGDFLTGFEELEGEAIDETISSNDKESADHPRFLKKSSSSLPLKISPAQYDIVKHDELLTPGLHRRQRDWNTQQELDSFKEKRSVRHCSNQNVQLNGPAKIKTIKQQIDHNTPMKKGSMIYNPKTMKWEGNENVLSKFSDVDTANRKALLIKNKLQRDADSKKQKY
binding result (6His–Cdc14p): binds

Source: PMC2173300 (The Journal of Cell Biology, 2002)
